Laboratory results reported in patent US20230391845A1, “GLP-1, GIP AND GLUCAGON RECEPTOR TRIPLE AGONISTS” (priority 2020, published 2023).
Where no end group is shown, it is not given here. [ ]: non-standard residue; d: D form. Aib = CC(C)(N)C(=O)O

B1: Compound No. 54 (peptide)
peptide: H[Aib]HGTFTSDYSILLEKQAAREFVQWLLEGGPSSGAPPPS-OH
modifications: not fully specified (residue 16); printed as H-Aib-HGTFTSDYSILLE-K[(2S)-2-amino-6-[[(2S)-2-amino-6-[[(4S)-4-carboxy-4-(17-carboxyheptadecanoylamino)butanoyl]amino]hexanoyl]amino]hexanoyl]-QAAREFVQWLLEGGPSSGAPPPS-OH
B2: Compound No. 6 (peptide)
peptide: Y[Aib]QGTFTSDYSIYLDKQAA[Aib]EFVNWLLAGGPSSGAPPPS-NH2
modifications: not fully specified (residue 16); printed as Y-Aib-QGTFTSDYSIYLD-K[2-[2-[2-[[2-[2-[2-[[(4S)-4-carboxy-4-[[4-[(19-carboxynonadecanoylamino) methyl]cyclohexanecarbonyl]amino]butanoyl]amino]ethoxy ]ethoxy]acetyl]amino]ethoxy]ethoxy]acetyl]-QAA-Aib-EFVNWLLAGGPSSGAPPPS-NH2
B3: Compound No. 8 (peptide)
peptide: Y[Aib]QGTFTSDYSIYLDKQAA[Aib]KFVQWLLEGGPSSGAPPPS-NH2
modifications: not fully specified (residue 21); printed as Y-Aib-QGTFTSDYSIYLDKQAA-Aib-K[2-[2-[2-[[2-[2-[2-[[(4S)-4-carboxy-4-[[4-[(19-carboxynonadecanoylamino)methyl]cyclohexanecarbonyl]amino]butanoyl]amino]ethoxy]ethoxy]acetyl]amino]ethoxy]ethoxy]acetyl]-FVQWLLEGGPSSGAPPPS-NH2
B4: Compound No. 13 (peptide)
peptide: Y[Aib]QGTFTSDYSIYLEKQAA[Aib]EFVNWLLAGGPSSGAPPPS-NH2
modifications: not fully specified (residue 16); printed as Y-Aib-QGTFTSDYSIYLE-K[(2S)-2-amino-6-[[(2S)-2-amino-6-[[(4S)-4-carboxy-4-[[4-[(19-carboxynonadecanoylamino)methyl]cyclohexanecarbonyl]amino]butanoyl]amino]hexanoyl]amino]hexanoyl]-QAA-Aib-EFVNWLLAGGPSSGAPPPS-NH2
B5: Compound No. 4 (peptide)
peptide: Y[Aib]QGTFTSDYSIYLDKQAA[Aib]KFVQWLLEGGPSSGAPPPS-NH2
modifications: not fully specified (residue 21); printed as Y-Aib-QGTFTSDYSIYLDKQAA-Aib-K[2-[2-[2-[[2-[2-[2-[[(4S)-4-carboxy-4-(17-carboxyheptadecanoylamino)butanoyl]amino]ethoxy]ethoxy]acetyl]amino]ethoxy]ethoxy]acetyl]-FVQWLLEGGPSSGAPPPS-NH2
B6: Compound No. 12 (peptide)
peptide: Y[Aib]QGTFTSDYSIYLEKQAA[Aib]EFVNWLLAGGPSSGAPPPS-NH2
modifications: not fully specified (residue 16); printed as Y-Aib-QGTFTSDYSIYLE-K[2-[2-[2-[[2-[2-[2-[[(4S)-4-carboxy-4-[[4-[(19-carboxynonadecanoylamino)methyl]cyclohexanecarbonyl]amino]butanoyl]amino]ethoxy]ethoxy]acetyl]amino]ethoxy]ethoxy]acetyl]-QAA-Aib-EFVNWLLAGGPSSGAPPPS-NH2
B7: Compound No. 5 (peptide)
peptide: Y[Aib]QGTFTSDYSIYLDKQAA[Aib]EFVNWLLAGGPSSGAPPPS-NH2
modifications: not fully specified (residue 16); printed as Y-Aib-QGTFTSDYSIYLD-K[2-[2-[2-[2-[2-[2-[[[(4S)-4-carboxy-4-(19-carboxynonadecanoylamino) butanoyl]amino]ethoxy]ethoxy]acetyl]amino]ethoxy]ethoxy]acetyl]-QAA-Aib-EFVNWLLAGGPSSGAPPPS-NH2
B8: Compound No. 53 (peptide)
peptide: H[Aib]HGTFTSDYSILLEKQAAQEFVQWLLEGGPSSGAPPPS-OH
modifications: not fully specified (residue 16); printed as H-Aib-HGTFTSDYSILLE-K[(2S)-2-amino-6-[[(2S)-2-amino-6-[[(4S)-4-carboxy-4-(19-carboxynonadecanoylamino)butanoyl]amino]hexanoyl]amino]hexanoyl]-QAAQEFVQWLLEGGPSSGAPPPS-OH
B9: Compound No. 56 (peptide)
peptide: H[Aib]HGTFTSDYSILLEKQAAHEFVQWLLEGGPSSGAPPPS-OH
modifications: not fully specified (residue 16); printed as H-Aib-HGTFTSDYSILLE-K[(2S)-2-amino-6-[[(2S)-2-amino-6-[[(4S)-4-carboxy-4-(17-carboxyheptadecanoylamino)butanoyl]amino]hexanoyl]amino]hexanoyl]-QAAHEFVQWLLEGGPSSGAPPPS-OH
B10: Compound No. 9 (peptide)
peptide: Y[Aib]QGTFTSDYSIYLDKKAA[Aib]EFVNWLLAGGPSSGAPPPS-NH2
modifications: not fully specified (residue 17); printed as Y-Aib-QGTFTSDYSIYLDK-K[2-[2-[2-[[2-[2-[2-[[(4S)-4-carboxy-4-(19-carboxynonadecanoylamino)butanoyl]amino]ethoxy]ethoxy]acetyl]amino]ethoxy]ethoxy]acetyl]-AA-Aib-EFVNWLLAGGPSSGAPPPS-NH2
B11: Compound No. 55 (peptide)
peptide: H[Aib]HGTFTSDYSILLEKQAAREFVQWLLEGGPSSGAPPPS-OH
modifications: not fully specified (residue 16); printed as H-Aib-HGTFTSDYSILLE-K[(2S)-2-amino-6-[[(2S)-2-amino-6-[[(4S)-4-carboxy-4-(19-carboxynonadecanoylamino)butanoyl]amino]hexanoyl]amino]hexanoyl]-QAAREFVQWLLEGGPSSGAPPPS-OH
B12: Compound No. 7 (peptide)
peptide: Y[Aib]QGTFTSDYSIYLDKQAA[Aib]KFVQWLLEGGPSSGAPPPS-NH2
modifications: not fully specified (residue 21); printed as Y-Aib-QGTFTSDYSIYLDKQAA-Aib-K[2-[2-[2-[[2-[2-[2-11(4S)-4-carboxy-4-(19-carboxynonadecanoylamino)butanoyl]amino]ethoxy]ethoxy]acetyl]amino]ethoxy]ethoxy]acetyl]-FVQWLLEGGPSSGAPPPS-NH2
B13: Compound No. 52 (peptide)
peptide: H[Aib]HGTFTSDYSILLEKQAAQEFVQWLLEGGPSSGAPPPS-OH
modifications: not fully specified (residue 16); printed as H-Aib-HGTFTSDYSILLE-K[(2S)-2-amino-6-[[(2S)-2-amino-6-[[(4S)-4-carboxy-4-(17-carboxyheptadecanoylamino)butanoyl]amino]hexanoyl]amino]hexanoyl]-QAAQEFVQWLLEGGPSSGAPPPS-OH
B14: Compound No. 10 (peptide)
peptide: Y[Aib]QGTFTSDYSIYLDKKAA[Aib]EFVNWLLAGGPSSGAPPPS-NH2
modifications: not fully specified (residue 17); printed as Y-Aib-QGTFTSDYSIYLDK-K[2-[2-[2-[[2-[2-[2-[[(4S)-4-carboxy-4-[[4-[(19-carboxynonadecanoylamino)methyl]cyclohexanecarbonyl]amino]butanoyl]amino]ethoxy]ethoxy]acetyl]amino]ethoxy]ethoxy]acetyl]-AA-Aib-EFVNWLLAGGPSSGAPPPS-NH2

How the values were obtained:
Assay in all cases: cell-based or functional assay
human glucagon receptor = human glucagon receptor (human, UniProt P47871 26-477)
Chain of human glucagon receptor (P47871 26-477): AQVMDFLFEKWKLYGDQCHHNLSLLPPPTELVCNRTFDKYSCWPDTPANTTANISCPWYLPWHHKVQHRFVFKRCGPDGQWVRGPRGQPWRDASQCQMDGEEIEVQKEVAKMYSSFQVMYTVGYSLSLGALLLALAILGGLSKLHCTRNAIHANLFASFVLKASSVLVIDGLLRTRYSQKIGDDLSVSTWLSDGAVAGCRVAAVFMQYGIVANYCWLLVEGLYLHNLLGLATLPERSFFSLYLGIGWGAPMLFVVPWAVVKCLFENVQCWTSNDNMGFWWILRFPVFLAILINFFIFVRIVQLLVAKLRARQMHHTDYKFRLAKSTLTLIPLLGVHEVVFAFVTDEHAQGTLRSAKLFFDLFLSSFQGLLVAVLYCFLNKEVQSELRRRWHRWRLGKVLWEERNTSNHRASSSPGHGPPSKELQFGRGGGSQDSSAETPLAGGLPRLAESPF

[1] = target: human glucagon-like peptide 1 receptor (human, UniProt P43220 24-463)
[2] = target: T1, human glucose-dependent insulinotropic polypeptide receptor (human, UniProt P48546 22-466)
T1 sequence (looked up): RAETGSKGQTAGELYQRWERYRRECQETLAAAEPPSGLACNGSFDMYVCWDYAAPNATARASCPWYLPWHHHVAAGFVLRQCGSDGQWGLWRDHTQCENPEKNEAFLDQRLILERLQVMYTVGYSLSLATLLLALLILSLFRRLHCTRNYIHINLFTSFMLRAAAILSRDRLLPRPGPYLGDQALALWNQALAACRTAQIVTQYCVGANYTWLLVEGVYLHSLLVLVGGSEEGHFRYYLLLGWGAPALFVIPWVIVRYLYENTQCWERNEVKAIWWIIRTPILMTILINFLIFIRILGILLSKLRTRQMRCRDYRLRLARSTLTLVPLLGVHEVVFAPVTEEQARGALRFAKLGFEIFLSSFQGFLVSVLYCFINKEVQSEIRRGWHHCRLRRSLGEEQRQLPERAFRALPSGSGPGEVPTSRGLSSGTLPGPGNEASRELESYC

| Binder | hGcgR CRE Luc EC50 (pM) (human glucagon receptor) | hGLP-1R CRE Luc EC50 (pM) [1] [pM] | hGIPR CRE Luc EC50 (pM) [2] [pM] |
| --- | --- | --- | --- |
| B1 | 22.8 | 1.5 | 28 |
| B2 | 216 | 5.1 | 7.7 |
| B3 | 91.9 | 12.1 | 45.5 |
| Y[Aib]QGTFTSDYSIYLEKQAA[Aib]KFVQWLLEGGPSSGAPPPS-NH2 (not fully specified (residue 21)) [Compound No. 11] | 129 | 4.3 | 7.9 |
| B4 | 157 | 2.8 | 2.1 |
| B5 | 31.4 | 9.4 | 60.3 |
| B6 | 239 | 2.4 | 1.8 |
| B7 | 205 | 7.2 | 20.6 |
| B8 | 22 | 2.7 | 4.8 |
| B9 | 6.4 | 1.1 | 2.3 |
| B10 | 116 | 4.4 | 48.6 |
| B11 | 18.8 | 2 | 7.5 |
| B12 | 61.3 | 8.2 | 65.5 |
| B13 | 14.9 | 0.8 | 6.6 |
| B14 | 250 | 4.7 | 27.6 |
